In article PMC3288176 (ACS Chemical Biology, 2011):

Biological target: the molecule itself
Assay: SEC

B1: EcPAPR4cys (enzyme, Escherichia coli)
chain: MSKLDLNALNELPKVDRILALAETNAELEKLDAEGRVAWALDNLPGEYVLSSSFGIQAAVSLHLVNQIRPDIPVILTDTGYLFPETYRFIDELTDKLKLNLKVYRATESAAWQEARYGKLWEQGVEGIEKCCDINKVEPMNRALKELNAQTWFAGLRREQSGSRANLPVLAIQRGVFKVLPIIDWDNRTIYQYLQKHGLKYHPLWDEGYLSVGCTHCTRKWEPGMAEEETRFFGLKRECGLHEG
  stoichiometry N: 2
